± gives the uncertainty stated by the source.
Test: self-splicing fitness, log relative to wild type (ln ratio); higher = more splicing; Tetrahymena group I intron in knt gene, E. coli kanamycin selection, DiMSum; sequences stand for … in CUCUCU…GGAGGGAAAAGUUAUCAGGCAUGCACCUGGUAGCUAGUCUUUAAACCAAUAGAUUGCAUCGGUUUAAAAGGCAAGACCGUCAAAUUGCGGGAAAGGGGUCAACAGCCGUUCAGUACCAAGUCUCAGGGGAAACUUUGAGAUGGCCUUGCAAAGGGUAUGGUAAUAAGCUGACGGACAUGGUCCUAACCACGCAGCCAAGUCCUAAGUCAACAGAUCUUCUGUUGAUAUGGAUGCAGUUCACAGACUAAAUGUCGGUCGGGGAAGAUGUAUUCUUCUCAUAAGAUAUAGUCGGACCUCUCCUUAAUGGGAGCUAGCGGAUGAAGUGAUGCAACACUGGAGCCGCUGGGAACUAAUUUGUAUGCGAAAGUAUAUUGAUUAGUUUUGGAGUACUCGUGGUCG
How it was run: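 Six replicate transformations of E. coli BL21(DE3) with a pET-22b(+) library were grown overnight at 37°C or 30°C. The library randomised all eight P1ex-region intron nucleotides, the intron lying in the knt kanamycin-resistance gene, and plates were LB agar with or without 25 μg/mL kanamycin plus 100 μg/mL carbenicillin, 50 μM IPTG and 0.2% rhamnose. Pooled colonies were amplicon-sequenced on an Illumina HiSeq 2500, and fitness is the DiMSum error-weighted combination of wild-type-normalised replicate fold changes, kanamycin versus none.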

| Sequence | self-splicing fitness (ln) (30 °C) | self-splicing fitness (ln) (37 °C) |
| --- | --- | --- |
| GAUGAGCAAUAUUACGCGUG | -0.71 ± 0.14 | -1.14 ± 0.16 |
| GAUGAGCAAUAUUACGCUGU | -3.68 ± 0.26 | -2.35 ± 0.26 |
| GAUGAGCAAUAUUACGGAUG | -2.78 ± 0.19 | -2.89 ± 0.26 |
| GAUGAGCAAUAUUACGGCAA | -0.812 ± 0.26 | -2.35 ± 0.37 |
| GAUGAGCAAUAUUACGGCAC | -0.478 ± 0.098 | -0.366 ± 0.16 |
| GAUGAGCAAUAUUACGGGCA | -1.87 ± 0.2 | -1.88 ± 0.28 |
| GAUGAGCAAUAUUACGGGUG | -2.68 ± 0.2 | -3.32 ± 0.28 |
| GAUGAGCAAUAUUACGGUCC | -3.29 ± 0.2 | -2.27 ± 0.36 |
| GAUGAGCAAUAUUACGUAAG | -3.37 ± 0.24 | -2.11 ± 0.2 |
| GAUGAGCAAUAUUACGUAGA | -3.51 ± 0.24 | -1.88 ± 0.2 |
| GAUGAGCAAUAUUACGUCGC | -4.14 ± 0.29 | -2.7 ± 0.26 |
| GAUGAGCAAUAUUACGUGGC | -3.24 ± 0.22 | -2.59 ± 0.26 |
| GAUGAGCAAUAUUACGUUAG | -3.42 ± 0.24 | -1.81 ± 0.23 |
| GAUGAGCAAUAUUACGUUAU | -3.98 ± 0.23 | -1.77 ± 0.16 |
| GAUGAGCAAUAUUACGUUGG | -3.65 ± 0.3 | -2.2 ± 0.32 |
| GAUGAGCAAUAUUACGUUUA | -3.13 ± 0.29 | -2.75 ± 0.23 |
| GAUGAGCAAUAUUACGUUUG | -3.24 ± 0.21 | -2.77 ± 0.26 |
| GAUUAGCAAUAUUACGACGA | -1.23 ± 0.3 | -0.273 ± 0.2 |
| GAUUAGCAAUAUUACGAGAU | -3.12 ± 0.14 | -3.26 ± 0.19 |
| GAUUAGCAAUAUUACGCAUA | -2.08 ± 0.17 | -0.967 ± 0.14 |
| GAUUAGCAAUAUUACGCCGA | -1.03 ± 0.42 | – |
| GAUUAGCAAUAUUACGGAAA | -2.25 ± 0.29 | -2.19 ± 0.22 |
| GAUUAGCAAUAUUACGGCCA | -1.41 ± 0.19 | 0.41 ± 0.21 |
| GAUUAGCAAUAUUACGGGUA | -1.98 ± 0.13 | -1.04 ± 0.12 |
| GAUUAGCAAUAUUACGUAGA | -1.92 ± 0.15 | -0.933 ± 0.14 |

| Sequence | self-splicing fitness (ln) (30 °C) | self-splicing fitness (ln) (37 °C) |
| --- | --- | --- |
| GCAAAGCAAUAUUACGAAGC | -1.83 ± 0.25 | -2.28 ± 0.34 |
| GCAAAGCAAUAUUACGACAG | -3.2 ± 0.18 | -2.68 ± 0.23 |
| GCAAAGCAAUAUUACGAGAC | – | -2.63 ± 0.43 |
| GCAAAGCAAUAUUACGAUCG | -1.52 ± 0.067 | -0.0765 ± 0.091 |
| GCAAAGCAAUAUUACGAUUA | -0.0977 ± 0.11 | -1.13 ± 0.13 |
| GCAAAGCAAUAUUACGAUUG | -3.55 ± 0.21 | -1.28 ± 0.15 |
| GCAAAGCAAUAUUACGCACA | -0.917 ± 0.12 | -0.182 ± 0.14 |
| GCAAAGCAAUAUUACGCAUC | -1.98 ± 0.16 | -1.4 ± 0.17 |
| GCAAAGCAAUAUUACGCCCA | -1.56 ± 0.16 | -0.194 ± 0.15 |
| GCAAAGCAAUAUUACGCCGU | -2.85 ± 0.21 | -2.46 ± 0.23 |
| GCAAAGCAAUAUUACGCCUA | -3.76 ± 0.42 | -1.11 ± 0.21 |
| GCAAAGCAAUAUUACGCGUC | -2.92 ± 0.28 | -1.94 ± 0.32 |
| GCAAAGCAAUAUUACGCUAG | -2.78 ± 0.088 | -2.51 ± 0.084 |
| GCAAAGCAAUAUUACGCUCG | -0.748 ± 0.17 | -0.86 ± 0.24 |
| GCAAAGCAAUAUUACGCUCU | -1.27 ± 0.075 | -0.565 ± 0.097 |
| GCAAAGCAAUAUUACGCUUA | -2.59 ± 0.15 | -1.46 ± 0.12 |
| GCAAAGCAAUAUUACGGCUU | -1.48 ± 0.11 | -0.763 ± 0.15 |
| GCAAAGCAAUAUUACGGUAA | -0.837 ± 0.12 | -0.921 ± 0.13 |
| GCAAAGCAAUAUUACGGUGG | -2.27 ± 0.12 | -2.43 ± 0.19 |
| GCAAAGCAAUAUUACGUCUA | -0.983 ± 0.13 | -0.637 ± 0.11 |
| GCAAAGCAAUAUUACGUGAC | -2.78 ± 0.12 | -1.1 ± 0.13 |
| GCAAAGCAAUAUUACGUGGG | -3.38 ± 0.15 | -3.07 ± 0.16 |
| GCAAAGCAAUAUUACGUGUU | -1.88 ± 0.086 | -1.03 ± 0.11 |
| GCAAAGCAAUAUUACGUUGA | -1.67 ± 0.088 | -1.03 ± 0.094 |
| GCACAGCAAUAUUACGACGA | -0.897 ± 0.13 | 0.243 ± 0.15 |

| Sequence | self-splicing fitness (ln) (30 °C) | self-splicing fitness (ln) (37 °C) |
| --- | --- | --- |
| GCACAGCAAUAUUACGACGU | -0.591 ± 0.073 | -0.0751 ± 0.088 |
| GCACAGCAAUAUUACGAGGG | -1.9 ± 0.091 | -1.14 ± 0.14 |
| GCACAGCAAUAUUACGAGGU | -1.85 ± 0.095 | 0.0148 ± 0.11 |
| GCACAGCAAUAUUACGAUGU | -2.05 ± 0.079 | -0.389 ± 0.088 |
| GCACAGCAAUAUUACGAUUU | -0.869 ± 0.042 | -0.0519 ± 0.058 |
| GCACAGCAAUAUUACGCAAG | -3.59 ± 0.24 | -2.51 ± 0.19 |
| GCACAGCAAUAUUACGCCAA | -3.77 ± 0.25 | -2.56 ± 0.2 |
| GCACAGCAAUAUUACGCCUA | -0.82 ± 0.13 | -0.373 ± 0.11 |
| GCACAGCAAUAUUACGCGAC | -1.75 ± 0.13 | -1.18 ± 0.16 |
| GCACAGCAAUAUUACGCUAC | -3.81 ± 0.37 | -2.29 ± 0.25 |
| GCACAGCAAUAUUACGGACG | -1.3 ± 0.14 | 0.0137 ± 0.14 |
| GCACAGCAAUAUUACGGAGC | -2.16 ± 0.15 | -2.1 ± 0.21 |
| GCACAGCAAUAUUACGGCUC | -0.268 ± 0.071 | 0.523 ± 0.076 |
| GCACAGCAAUAUUACGUAUC | -0.923 ± 0.061 | -0.833 ± 0.066 |
| GCACAGCAAUAUUACGUCCC | -0.0609 ± 0.11 | -0.44 ± 0.11 |
| GCACAGCAAUAUUACGUGGG | -1.53 ± 0.059 | -1.47 ± 0.067 |
| GCACAGCAAUAUUACGUUUA | -1.19 ± 0.066 | -0.603 ± 0.066 |
| GCAGAGCAAUAUUACGAAAC | -3.28 ± 0.14 | -2.23 ± 0.14 |
| GCAGAGCAAUAUUACGAACG | – | -1.78 ± 0.43 |
| GCAGAGCAAUAUUACGAAGU | -2.88 ± 0.12 | -1.03 ± 0.13 |
| GCAGAGCAAUAUUACGACAG | -3.01 ± 0.15 | -2.74 ± 0.26 |
| GCAGAGCAAUAUUACGACAU | -3.172 ± 0.023 | -2.06 ± 0.037 |
| GCAGAGCAAUAUUACGACUA | -2.45 ± 0.27 | -2.12 ± 0.24 |
| GCAGAGCAAUAUUACGACUU | -2.82 ± 0.16 | -0.936 ± 0.14 |
| GCAGAGCAAUAUUACGAGAA | – | -1.96 ± 0.32 |

| Sequence | self-splicing fitness (ln) (30 °C) | self-splicing fitness (ln) (37 °C) |
| --- | --- | --- |
| GCAGAGCAAUAUUACGAGAG | -3 ± 0.47 | -1.95 ± 0.32 |
| GCAGAGCAAUAUUACGAGUA | -3.23 ± 0.5 | -1.35 ± 0.43 |
| GCAGAGCAAUAUUACGAUCA | -4.02 ± 0.42 | -1.94 ± 0.18 |
| GCAGAGCAAUAUUACGCAAG | -3.03 ± 0.16 | -2.28 ± 0.17 |
| GCAGAGCAAUAUUACGCCUC | -2.46 ± 0.21 | -2.38 ± 0.34 |
| GCAGAGCAAUAUUACGCCUG | – | -1.33 ± 0.47 |
| GCAGAGCAAUAUUACGCGGA | -3.11 ± 0.34 | -2.91 ± 0.35 |
| GCAGAGCAAUAUUACGCGGU | -4.68 ± 0.29 | -3.16 ± 0.37 |
| GCAGAGCAAUAUUACGGACA | – | -0.844 ± 0.3 |
| GCAGAGCAAUAUUACGGGCC | – | -0.867 ± 0.3 |
| GCAGAGCAAUAUUACGGUCU | -3.54 ± 0.25 | -2.39 ± 0.27 |
| GCAGAGCAAUAUUACGUAGG | -2.17 ± 0.11 | -1.7 ± 0.14 |
| GCAGAGCAAUAUUACGUAUC | -2.59 ± 0.33 | -2.08 ± 0.41 |
| GCAGAGCAAUAUUACGUCCA | -2 ± 0.25 | -2.98 ± 0.4 |
| GCAGAGCAAUAUUACGUCGG | -2.57 ± 0.34 | -1.69 ± 0.46 |
| GCAGAGCAAUAUUACGUUAA | -1.87 ± 0.27 | -2.64 ± 0.42 |
| GCAUAGCAAUAUUACGAACG | -0.883 ± 0.14 | -0.356 ± 0.18 |
| GCAUAGCAAUAUUACGAAUC | -2.12 ± 0.33 | -1.55 ± 0.32 |
| GCAUAGCAAUAUUACGAUAC | -1.47 ± 0.13 | -0.915 ± 0.14 |
| GCAUAGCAAUAUUACGAUGG | -1.01 ± 0.09 | -0.54 ± 0.11 |
| GCAUAGCAAUAUUACGAUUC | -0.8 ± 0.083 | -0.436 ± 0.097 |
| GCAUAGCAAUAUUACGCAUU | -2.81 ± 0.26 | -0.0868 ± 0.17 |

From the supplement of paper PMC7877785
